Publication PMC7093153 (eLife, 2020)

B1: Swi5-Sfr1 complex (wild type, full-length Sfr1) (complex, S. pombe)
chain 1: MEKSQLESRVHLLEQQKEQLESSLQDALAKLKNRDAKQTVQKHIDLLHTYNEIRDIALGMIGKVAEHEKCTSVELFDRFGVNGSE
chain 2: MSQTINSELNENATSQCKEDLKVSLSESDLRDSQGQLGIENPPKCNNSGNHSDNLGFIEQSETVHPENEKALTPDLRDTKIHTSLPITTPFSKKRAREAKNILLKPFKSPLRQTASPQVADTNLKPSLAVTNLNSDETNTSSEPVTSPLRTTPNSIKRQKRLFKSPISNCLNPKSDPEITQLLSRRLKLEKEVRNLQEQLITAETARKVEAKNEDKDLQTLIQKWKNAAQQAAEVLFKPMAERIRLAGGVTQSFRIEEGENKGQIQEVRTEFTMSMFLNQFGVPVHLMSFDEENGDWKS
B2: Rad51 (S. pombe), purified (natural protein, UniProt P36601 1-365, looked up)
chain: MADTEVEMQVSAADTNNNENGQAQSNYEYDVNVQDEEDEAAAGPMPLQMLEGNGITASDIKKIHEAGYYTVESIAYTPKRQLLLIKGISEAKADKLLGEASKLVPMGFTTATEYHIRRSELITITTGSKQLDTLLQGGVETGSITELFGEFRTGKSQICHTLAVTCQLPIDMGGGEGKCLYIDTEGTFRPVRLLAVADRYGLNGEEVLDNVAYARAYNADHQLELLQQAANMMSESRFSLLVVDSCTALYRTDFSGRGELSARQMHLARFMRTLQRLADEFGIAVVITNQVVAQVDGISFNPDPKKPIGGNILAHSSTTRLSLRKGRGEQRICKIYDSPCLPESEAIFAINSDGVGDPKEIIAPV

How the values were obtained:
[1] = target: B2; assay: cell-based or functional assay
[2] = target: B1; assay: pull-down
SEC = target: the molecule itself; assay: SEC

| Binder | Rad51-dependent ATP turnover, Swi5-Sfr1:Rad51 ratio of 1:20 [1] | binding result [2] | binding result (SEC) |
| --- | --- | --- | --- |
| B1 | 1.85 fold |  |  |
| B2 |  | binds | binds |
